Data on two molecules can be found in PMC8263732, “M1BP cooperates with CP190 to activate transcription at TAD borders and promote chromatin insulator activity” (Nature Communications, 2021).

B1: Motif 1 Binding Protein (M1BP) (natural protein, UniProt Q9VHM3 1-418, looked up)
chain: MSKSALKHLKSTCRVCAKYASNKRSPKLFERSNTKMIDNIEALTGLRLENYGCLPDQICECCSMELASAVKLRERCIAAQRELLLGLTEEQRQGISAFYRAAVMGEDIVQTVKTPDDDEVYATYQEIVLEEPKEEIDDTKVEYDNTYYEVAEGHAGEDDAASLIEEADYDSIMAEDEEQQQTLELDEDTELIVGDVNDAYVYDSDDEVAVLDNVLDDEYEHENIVVKKCSLPPKPKVRSDDARRRGTGGVYICEQCGNHIKGRMAFELHCRRHRGDKQFGCELCQSRFCTTSELKRHMRKHTGERPFACKYCGRCFTDYTTRVKHERTHTNERPYVCGTCGKAFTTGYILKNHMLIHSGERAYRCELCDKSFMLPTHLSTHFRSGVHKRHLEKAEMKQVLEQEQKRELKEEEEDSLHI
notes: endogenous protein in embryonic nuclear extract; source: endogenous, nuclear extract of 0-24 h Drosophila embryos
B2: Modifier of mdg4 [Mod(mdg4)] 67.2 kDa isoform [Mod(mdg4)67.2] (natural protein, UniProt Q86B87 1-610, looked up)
chain: MADDEQFSLCWNNFNTNLSAGFHESLCRGDLVDVSLAAEGQIVKAHRLVLSVCSPFFRKMFTQMPSNTHAIVFLNNVSHSALKDLIQFMYCGEVNVKQDALPAFISTAESLQIKGLTDNDPAPQPPQESSPPPAAPHVQQQQIPAQRVQRQQPRASARYKIETVDDGLGDEKQSTTQIVIQTTAAPQATIVQQQQPQQAAQQIQSQQLQTGTTTTATLVSTNKRSAQRSSLTPASSSAGVKRSKTSTSANVMDPLDSTTETGATTTAQLVPQQITVQTSVVSAAEAKLHQQSPQQVRQEEAEYIDLPMELPTKSEPDYSEDHGDAAGDAEGTYVEDDTYGDMRYDDSYFTENEDAGNQTAANTSGGGVTATTSKAVVKQQSQNYSESSFVDTSGDQGNTEAQAATSASATKIPPRKRGRPKTKVEDQTPKPKLLEKLQAATLNEEASEPAVYASTTKGGVKLIFNGHLFKFSFRKADYSVFQCCYREHGEECKVRVVCDQKRVFPYEGEHVHFMQASDKSCLPSQFMPGESGVISSLSPSKELLMKNTTKLEEADDKEDEDFEEFEIQEIDEIELDEPEKTPAKEEEVDPNDFREKIKRRLQKALQNKKK
notes: Modifier of mdg4, the 67.2 kDa isoform, Drosophila; The gene has many isoforms; the 67.2 kDa isoform is meant; to be checked; source: endogenous, nuclear extract of 0-24 h Drosophila embryos

Holding throughout (assay): co-IP; 500 ug nuclear extract of 0-24 h Drosophila embryos incubated overnight at 4 C with antiserum (anti-Su(Hw), anti-CP190, anti-Mod(mdg4)67.2 or anti-M1BP; normal serum as control) cross-linked to Protein A or G Sepharose; washed twice with HBSMT and once with HBSM; western blotting; efficiency as percent of total input protein
Holding throughout (conditions): partners not purified
(Immunoblotting shows a protein as a band on a membrane.)

Experiment [1] addresses T1, Centrosomal protein 190 (CP190) (Drosophila (endogenous in 0-24 h Oregon …, UniProt Q24478 1-1096)).
T1 construct: Centrosomal protein 190 (CP190), universal insulator protein of Drosophila; endogenous protein in embryonic nuclear extract; source: endogenous, nuclear extract of 0-24 h Drosophila embryos
T1 sequence (looked up): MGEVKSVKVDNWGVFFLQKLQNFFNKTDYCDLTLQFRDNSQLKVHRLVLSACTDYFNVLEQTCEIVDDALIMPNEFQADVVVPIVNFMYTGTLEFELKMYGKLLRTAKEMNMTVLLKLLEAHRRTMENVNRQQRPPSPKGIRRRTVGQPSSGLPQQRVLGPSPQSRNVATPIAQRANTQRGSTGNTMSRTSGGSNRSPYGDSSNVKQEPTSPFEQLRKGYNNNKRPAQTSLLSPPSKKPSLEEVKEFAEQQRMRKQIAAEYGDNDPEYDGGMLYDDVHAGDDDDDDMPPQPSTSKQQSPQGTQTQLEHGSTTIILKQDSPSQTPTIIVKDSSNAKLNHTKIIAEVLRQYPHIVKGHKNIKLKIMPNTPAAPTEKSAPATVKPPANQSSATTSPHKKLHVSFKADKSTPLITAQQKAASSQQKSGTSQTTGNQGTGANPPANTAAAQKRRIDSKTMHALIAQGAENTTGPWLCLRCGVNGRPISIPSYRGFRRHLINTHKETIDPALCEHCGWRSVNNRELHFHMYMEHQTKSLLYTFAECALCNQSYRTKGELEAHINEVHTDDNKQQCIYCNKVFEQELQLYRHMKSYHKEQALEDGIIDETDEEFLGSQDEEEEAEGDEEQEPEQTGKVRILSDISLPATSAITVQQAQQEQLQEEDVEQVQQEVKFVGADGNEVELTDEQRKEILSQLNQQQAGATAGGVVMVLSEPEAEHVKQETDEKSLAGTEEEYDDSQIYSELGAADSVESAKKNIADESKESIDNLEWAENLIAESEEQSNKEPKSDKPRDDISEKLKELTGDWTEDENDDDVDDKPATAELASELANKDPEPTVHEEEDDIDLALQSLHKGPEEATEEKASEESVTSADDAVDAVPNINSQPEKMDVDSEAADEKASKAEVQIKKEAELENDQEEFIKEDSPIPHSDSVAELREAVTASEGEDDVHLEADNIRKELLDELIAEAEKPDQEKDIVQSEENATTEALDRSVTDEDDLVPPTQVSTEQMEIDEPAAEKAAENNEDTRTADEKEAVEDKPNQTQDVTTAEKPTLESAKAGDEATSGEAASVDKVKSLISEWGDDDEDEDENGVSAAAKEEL

Experiment [2] has as its target T2, Suppressor of Hairy wing [Su(Hw)] (Drosophila (endogenous in 0-24 h Oregon …, UniProt P08970 1-941)).
T2 construct: endogenous protein in embryonic nuclear extract; source: endogenous, nuclear extract of 0-24 h Drosophila embryos
T2 sequence (looked up): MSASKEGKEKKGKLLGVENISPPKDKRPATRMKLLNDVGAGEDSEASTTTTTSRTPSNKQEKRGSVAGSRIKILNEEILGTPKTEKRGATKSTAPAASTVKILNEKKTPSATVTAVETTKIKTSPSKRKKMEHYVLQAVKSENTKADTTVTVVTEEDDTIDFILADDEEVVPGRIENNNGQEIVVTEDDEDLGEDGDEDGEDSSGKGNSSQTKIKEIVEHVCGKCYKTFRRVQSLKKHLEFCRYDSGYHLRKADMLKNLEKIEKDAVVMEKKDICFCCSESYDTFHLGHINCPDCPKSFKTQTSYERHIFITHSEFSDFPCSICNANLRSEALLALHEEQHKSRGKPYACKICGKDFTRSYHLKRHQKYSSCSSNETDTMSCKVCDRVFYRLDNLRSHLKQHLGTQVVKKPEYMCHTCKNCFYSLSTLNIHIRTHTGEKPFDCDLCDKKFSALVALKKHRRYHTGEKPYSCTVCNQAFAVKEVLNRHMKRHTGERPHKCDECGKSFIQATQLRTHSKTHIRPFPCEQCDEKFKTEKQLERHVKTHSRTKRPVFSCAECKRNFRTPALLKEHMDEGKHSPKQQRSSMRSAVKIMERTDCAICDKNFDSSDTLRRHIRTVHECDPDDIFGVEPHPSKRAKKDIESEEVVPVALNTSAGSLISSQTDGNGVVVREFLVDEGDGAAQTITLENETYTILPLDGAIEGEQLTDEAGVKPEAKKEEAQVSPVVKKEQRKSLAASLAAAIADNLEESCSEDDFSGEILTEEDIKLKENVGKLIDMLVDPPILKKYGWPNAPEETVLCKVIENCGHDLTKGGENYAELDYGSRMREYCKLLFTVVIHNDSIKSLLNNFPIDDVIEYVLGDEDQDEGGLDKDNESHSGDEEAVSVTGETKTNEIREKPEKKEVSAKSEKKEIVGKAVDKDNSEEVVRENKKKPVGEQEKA

In experiment [3] the target is B2.
Experiment [4] concerns the target B1.

Regarding B1, the “percent of total protein immunoprecipitated with anti-CP190” value in experiment [1] was found to be 3.8%. Moreover, the “percent of total protein immunoprecipitated with anti-Su(Hw)” value in experiment [2] was 5.3%. The “percent of total protein immunoprecipitated with anti-Mod(mdg4)67.2” value in experiment [3] amounted to 3%.

Consider B2, for which the “percent of total protein immunoprecipitated with anti-CP190” value in experiment [1] turned out to be 8.2%. In addition, the “percent of total protein immunoprecipitated with anti-M1BP” value in experiment [4] is 1.4%. The “percent of total protein immunoprecipitated with anti-Su(Hw)” value in experiment [2] was found to be 1.9%.
